Experiment: RP-HPLC chromatogram of recombinant hirudin HV1 in water (FIG. 1)
Format: physicochemical
Details: 1 mg/ml hirudin in water
Method: RP-HPLC method: A LiChroCART 125-4 column is used (Merck LiChrospher 100 RP-18 5pm). Solvent A is 0.5% ammoniumacetate in acetonitrile/water (10:90), (v:v); solvent B is 0.5% ammoniumacetate in acetonitrile/water (25:75). The elution is performed at 45° C. using a flow rate of 0.5 ml/min. The binary elution is a linear gradient starting at time zero with 23% solvent B and reaching 46% solvent B after 24 minutes. After 2 min at 70% solvent B the column is equilibrated for 7 rain at 23% solvent B.
A typical chromatogram of recombinant hirudin HV1 (CGP 39393) in water using the RP-HPLC (1 mg/ml hirudin) method is shown in FIG. 1.
In FIG. 1, the relative area of the main peak is 95.15%. Storage of hirudin in water at room temperature results in an increase of by products with time. […] The changes which occur can be accelerated by using temperature stress experiments i.e. by storage at elevated temperatures.

For desulphatohirudin HV1 [CGP 39393], the “relative area of the main peak” value was 95.15%.

From patent US5733874A, “Stable dry powders” (Novartis Corp., priority 1994, dated 1998)
